Laboratory results reported in patent publication US20180360992A1 (PRECIGEN, published 2018).

Target: the molecule itself
Test: native-PAGE/immunoblot of conditioned media of transfected 293T cells; self-association (homodimer)

B1: S100A1 with C-terminal fp2a-cleaved linker tail (2A tail), as cleaved from lead dual-gene and triple-gene constructs (other)
chain: MGSELETAMETLINVFHAHSGKEGDKYKLSKKELKELLQTELSGFLDAQKDVDAVDKVMKELDENGDGEVDFQEYVVLVAALTVACNNFFWENSRAKRAPVKQGSGATNFSLLKQAGDVEENPG
notes: Homodimer seen by native PAGE and immunoblot; also called S100A1 with 2A tail
B1: binds.
